Experimental data from US20260209750, “SYSTEM AND METHOD FOR […] RNA APTAMER” (CRISmers Biotechnologies (Shenzhen) Co., Ltd., published 2026).

Assays:
[1] = target: NSP7-8 complex (SARS-CoV-2, UniProt P0DTD1;P0DTD1 P0DTD1:3860-3942,P0DTD1:3943-4140); assay: ELONA; details: label: biotin
[2] = target: PD-1 extracellular domain, recombinant (UniProt Q15116 Q15116:25-170); assay: ELONA
[3] = target: T1, SARS-CoV-2 spike RBD (wild type), recombinant (SARS-CoV-2, UniProt P0DTC2 P0DTC2:319-541); assay: EMSA
[4] = target: T1, SARS-CoV-2 spike RBD (wild type), …; assay: ELONA

PD-1 extracellular domain, recombinant, sequence (Q15116 25-170, one chain of several): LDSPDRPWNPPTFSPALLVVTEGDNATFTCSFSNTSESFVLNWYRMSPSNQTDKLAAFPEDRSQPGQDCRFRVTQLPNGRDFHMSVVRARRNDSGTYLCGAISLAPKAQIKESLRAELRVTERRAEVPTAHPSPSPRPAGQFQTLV

Binder	binding result [1]	binding result [2]	binding result [3]	Kd [4] [µM]
ACUUGGCCACGUCGACUGAAAUCCUCUUCCUGCAGGGCCAAGUG (ssRNA) [#2-1-18 full]	no binding	no binding		
ACUUGGCCACGUCGACUGAAAUCCUCUUCCUGCAGGGCCAAGUG (ssRNA, 2'-F on pyrimidines, 2'-OMe on purines) [#2-1-18-2'-F-O]			binds	
ACUUGGCCAAUUACCGUAGUUUUUGUAGUCUGCAGGGCCAAGUG (ssRNA) [#5-2-15 full]	no binding	no binding		0.0226
ACUUGGCCAAUUACCGUAGUUUUUGUAGUCUGCAGGGCCAAGUG (ssRNA, 2'-F on pyrimidines, 2'-OMe on purines) [#5-2-15-2'-F-O]			binds	
